From paper PMC11616081, “Structural basis of archaeal FttA-dependent transcription termination” (Nature, 2024) come the findings set out here.

The chains are these.
B1: Tko Spt5 (natural protein, Thermococcus kodakarensis)
chain: MAEGKIFTVSVTVGQETTTANLIYSKAKTYNLPLYAILSPSKVKGYIFIEAPNKSAVEEAIRGIRHAKRVLPGEIPFSEIEHFLEEKPAVSGFEPGDIVELIAGPFKGEKAKVVRVDESKDEIVVELVSSVVPIPVTVRGEYVRLISKRQKE
notes: Spt5, Thermococcus kodakarensis; NGN domain and KOW domain; residues 1-3 not fitted in the map; Used as Spt4/5 (Spt4-Spt5 complex) in the biochemical assays; also called NusG/Spt5
B2: Tko FttA(H255A/H591A) (enzyme, Thermococcus kodakarensis)
chain: MIRRETFVDDILKEIREIIVQMVPREAGITDVEFEGPELVIYVKNPEAMMKDGELIKNLAKVLKKRISVRPDPDILLPPEKAEELIKQLVPPEAEITNISFDPSVGEVLIEARKPGLVIGKNGETLRLITQKVHWAPRVVRTPPIQSQTIYSIRSILQTESKDRRKFLRQVGRNIYRKSEYKSRWIRITGLGGFREVGRSALLVQTDESYVLVDFGVNIAALKDPTKAYPHFDAPEFRYVLDEGLLDAIIITHAALDHSGMLPYLFRYKLFDGPIYTTPPTRDLMTLLQQDFIEIQHMNGVEPLYRPKDIKEVIKHTITLDYGEVRDIAPDIRLTLHNAGHILGSSIVHLHIGNGLHNIAITGDFKFIPTRLFEPAVSRFPRLETLVMESTYGGSNDYQMPREEAEKRLIEVIHQTLKRGGKVLIPAMAVGRAQEIMMVLEEYARVGGIEVPIYLDGMIWEATAIHTAYPEYLSKHIREQIFHEGYNPFLNPIFKSVANSRERQDIIDSGEPAIIIATSGMLVGGPSVEYFKQLAPDPKNSIIFVSYQAEGTLGRQVQRGLREIPIVGEDGRTEVINVNMEVHTIDGFSGAADRRELMSYVARVRPRPERIITVHGEAHKCLDLSSSIHKKFGISTRAPNNLDAIRLK
notes: FttA (aCPSF, aCPSF1), Thermococcus kodakarensis; domains KH1 6-75, KH2 76-144, MβLa 198-428, βCASP 433-557, MβLb 576-639; residues 1-3 of FttA^prox not fitted in the map; Dimer in the structure (protomers FttA^prox and FttA^dist); also called FttA^prox; FttA^dist
B3: Tko Spt4 (natural protein, Thermococcus kodakarensis)
chain: MAKERACRHCHYITTEDRCPVCGSRDLSDDWFDLVIVLDVESRIAKKLRESIPEAAKVPGKYAIRVR
notes: Spt4, Thermococcus kodakarensis; residues 1-3 not fitted in the map

Common to all, as to test: cryo-EM structure; 4 μM Tko RNAP, 8 μM Spt4, 8 μM Spt5 and 5 μM nucleic acid scaffold (TEC[44] or TEC[52]) in 20 mM HEPES-NaOH pH 7.5, 30 mM KCl, 10 mM magnesium acetate, 1 mM dithiothreitol, 10 min at 22 °C; then FttA(H255A/H591A) added, 10 min at 22 °C and 5 min at 42 °C; CHAPSO added before freezing; single-particle reconstruction at 2.5 Å (TEC[44]) and 2.2 Å (TEC[52])

In the data set “Tko FttA(H255A/H591A)” the target is B2. Conditions: both partners purified.
Data set [1] concerns the molecule itself.
The data set “Tko Spt5” deals with B1. To be noted: both partners purified.

Take B1: in the data set with Tko FttA(H255A/H591A), the binding result is on record as “binds”.

By stoichiometry N is commonly meant a count of units in the complex or per binding partner. B2: the “stoichiometry N” value in data set [1] was 2.

Turning to B3, the binding result in the data set with Tko Spt5 is “binds”.
